Measured values: article PMC10397247

Tests used:
[1] = molecular target: T1, 4H2758-AA; experiment: two-hybrid library CCmax; conditions: mean of both orientations;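 also: natural log of median RNA to DNA barcode read ratio; higher means stronger binding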
T1 chain: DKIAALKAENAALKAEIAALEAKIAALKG

[2] = molecular target: T2, 4H2187-AA; experiment: two-hybrid library CCmax; conditions: mean of both orientations;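 also: natural log of median RNA to DNA barcode read ratio; higher means stronger binding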
T2 chain: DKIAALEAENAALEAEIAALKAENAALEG

[3] = molecular target: T3, 4H121-AA; experiment: two-hybrid library CCmax;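 also: natural log of median RNA to DNA barcode read ratio; higher means stronger binding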
T3 chain: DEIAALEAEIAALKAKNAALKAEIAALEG

[4] = molecular target: T4, 4H1710-AA; experiment: two-hybrid library CCmax; conditions: mean of both orientations;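 also: natural log of median RNA to DNA barcode read ratio; higher means stronger binding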
T4 chain: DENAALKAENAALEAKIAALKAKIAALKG

[5] = molecular target: T5, 4H3134-AA; experiment: two-hybrid library CCmax; conditions: mean of both orientations;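 also: natural log of median RNA to DNA barcode read ratio; higher means stronger binding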
T5 chain: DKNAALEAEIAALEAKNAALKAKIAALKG

[6] = molecular target: T6, 4H3409-AA; experiment: two-hybrid library CCmax; conditions: mean of both orientations;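 also: natural log of median RNA to DNA barcode read ratio; higher means stronger binding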
T6 chain: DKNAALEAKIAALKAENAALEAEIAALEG

[7] = molecular target: T7, 4H775-AA; experiment: two-hybrid library CCmax; conditions: mean of both orientations
T7 chain: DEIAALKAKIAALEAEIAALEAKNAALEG

[8] = molecular target: T8, 4H2705-AA; experiment: two-hybrid library CCmax; conditions: mean of both orientations
T8 chain: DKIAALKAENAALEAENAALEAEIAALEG

[9] = molecular target: T9, 4H510-AA; experiment: two-hybrid library CCmax; conditions: mean of both orientations
T9 chain: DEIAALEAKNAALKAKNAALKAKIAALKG

[10] = molecular target: T10, 4H816-AA; experiment: two-hybrid library CCmax; conditions: mean of both orientations
T10 chain: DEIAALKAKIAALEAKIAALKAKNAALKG

[11] = molecular target: T11, 4H2646-AA; experiment: two-hybrid library CCmax; conditions: mean of both orientations
T11 chain: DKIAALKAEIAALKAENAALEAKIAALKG

[12] = molecular target: T12, 4H2985-AA; experiment: two-hybrid library CCmax; conditions: mean of both orientations
T12 chain: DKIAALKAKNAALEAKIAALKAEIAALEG

[13] = molecular target: T13, 4H3940-AA; experiment: two-hybrid library CCmax; conditions: mean of both orientations
T13 chain: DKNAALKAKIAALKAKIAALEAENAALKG

[14] = molecular target: T14, 4H1985-AA; experiment: two-hybrid library CCmax; conditions: mean of both orientations
T14 chain: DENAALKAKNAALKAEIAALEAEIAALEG

[15] = molecular target: T15, 4H1350-AA; experiment: two-hybrid library CCmax; conditions: mean of both orientations
T15 chain: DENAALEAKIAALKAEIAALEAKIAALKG

[16] = molecular target: T16, 4H278-AA; experiment: two-hybrid library CCmax; conditions: mean of both orientations
T16 chain: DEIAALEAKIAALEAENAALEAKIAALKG

[17] = molecular target: T17, 4H390-AA; experiment: two-hybrid library CCmax; conditions: mean of both orientations
T17 chain: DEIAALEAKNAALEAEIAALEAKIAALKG

[18] = molecular target: T18, 4H87-AA; experiment: two-hybrid library CCmax; conditions: mean of both orientations
T18 chain: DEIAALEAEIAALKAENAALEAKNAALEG

[19] = molecular target: T19, 4H2687-AA; experiment: two-hybrid library CCmax; conditions: mean of both orientations
T19 chain: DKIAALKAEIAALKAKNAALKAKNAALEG

[20] = molecular target: T20, 4H3625-AA; experiment: two-hybrid library CCmax; conditions: mean of both orientations
T20 chain: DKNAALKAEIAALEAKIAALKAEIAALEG

[21] = molecular target: T21, 4H2512-AA; experiment: two-hybrid library CCmax; conditions: mean of both orientations
T21 chain: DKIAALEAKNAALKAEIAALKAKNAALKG

[22] = molecular target: T22, 4H2873-AA; experiment: two-hybrid library CCmax; conditions: mean of both orientations
T22 chain: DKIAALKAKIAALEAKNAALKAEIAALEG

[23] = molecular target: T23, 4H233-AA; experiment: two-hybrid library CCmax; conditions: mean of both orientations
T23 chain: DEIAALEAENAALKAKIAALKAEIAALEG

[24] = molecular target: T24, 4H491-bH; experiment: two-hybrid library CCNG1
T24 chain: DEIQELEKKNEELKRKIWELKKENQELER

[25] = molecular target: T25, 4H2883-bH; experiment: two-hybrid library CCNG1
T25 chain: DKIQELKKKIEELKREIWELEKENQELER

[26] = molecular target: T26, 4H2944-bH; experiment: two-hybrid library CCNG1
T26 chain: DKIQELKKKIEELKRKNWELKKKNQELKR

[27] = molecular target: T27, 4H2696-bH; experiment: two-hybrid library CCNG1
T27 chain: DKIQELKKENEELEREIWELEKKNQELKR

[28] = molecular target: T28, 4H48-bH; experiment: two-hybrid library CCNG1
T28 chain: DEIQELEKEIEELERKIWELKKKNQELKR

[29] = molecular target: T29, 4H342-bH; experiment: two-hybrid library CCNG1
T29 chain: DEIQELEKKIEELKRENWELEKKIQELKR

[30] = molecular target: T30, 4H2937-bH; experiment: two-hybrid library CCNG1
T30 chain: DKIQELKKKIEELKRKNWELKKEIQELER

B1: 4H121-AA (peptide)
chain: DEIAALEAEIAALKAKNAALKAEIAALEG
interaction score [1]: 0.775 | interaction score [2]: -0.0331 | interaction score [3]: 0.829 | interaction score [4]: 0.228 | interaction score [5]: 0.777 | interaction score [6]: 0.672 | interaction score [7]: -0.904 | interaction score [8]: 0.603 | interaction score [9]: -1.47 | interaction score [10]: -0.458 | interaction score [11]: 2.21 | interaction score [12]: 0.209 | interaction score [13]: -0.784 | interaction score [14]: -1.39 | interaction score [15]: 0.484 | interaction score [16]: 2.13 | interaction score [17]: 1.2 | interaction score [18]: 0.81 | interaction score [19]: -0.303 | interaction score [20]: -0.876 | interaction score [21]: -1.66 | interaction score [22]: 0.239 | interaction score [23]: -0.289

B2: 4H2696-bH (peptide)
chain: DKIQELKKENEELEREIWELEKKNQELKR
interaction score [24]: 1.73 | interaction score [25]: 1.5 | interaction score [26]: -0.0809 | interaction score [27]: 0.576 | interaction score [28]: 1.04 | interaction score [29]: 0.972 | interaction score [30]: 1.47
